According to patent US20140271661A1 (published 2014):

B1: TPP-2019 hIgG (antibody, V domains shown)
VH: EVQLLESGGGLVQPGGSLRLSCAASGFTFSRYAMYWVRQAPGKGLEWVSRISPSGGKTHYADSVKGRFTISRDNSKNTLYLQMNSLRAEDTAVYYCARLSQTGYYPHYHYYGMDVWGQGTTVTVSS
VL: DIQMTQSPATLSLSPGERATLSCRASQRVSSSYLTWYQQKPGQAPRLLIYGASSRATGIPDRFSGSGSGTDFTLTISRLEPEDFAVYYCQQYDSTPPLTFGGGTKVEIKR
B2: TPP2009 hIgG1 (antibody, V domains shown)
VH: EVQLLESGGGLVQPGGSLRLSCAASGFTFSAYRMGWVRQAPGKGLEWVSRIYSSGGRTRYADSVKGRFTISRDNSKNTLYLQMNSLRAEDTAVYYCAREKASDLSGSFSEALDYWGQGTLVTVSS
VL: AQSVLTQDPAVSVALGQTVRITCQGDSLRSYYASWYQQKPGQAPVLVIYGKNNRPSGIPDRFSGSSSGNTASLTITGAQAEDEADYYCNSRDSSGNHLVFGGGTKLTVLG
B3: TPP-2016 hIgG (antibody, V domains shown)
VH: EVQLLESGGGLVQPGGSLRLSCAASGFTFSKYRMDWVRQAPGKGLEWVSRIGPSGGKTTYADSVKGRFTISRDNSKNTLYLQMNSLRAEDTAVYYCAREKTSDLSGSYSEALDYWGQGTLVTVSS
VL: DIQMTQSPATLSVSPGERATLSCRASQNINRNLAWYQQKPGRAPRLLIHTASTRAPGVPVRITGSGSGTEFTLTISSLEPEDFAVYFCQQYASPPRTFGQGTKVEIKR

Target: human antithrombin β complexed with heparin (human ATβH) (human, UniProt P01008 33-464, lacks glycosylation at Asn135 (β glyco-isoform); complexed with heparin)
Sequence (P01008 33-464, one chain of several): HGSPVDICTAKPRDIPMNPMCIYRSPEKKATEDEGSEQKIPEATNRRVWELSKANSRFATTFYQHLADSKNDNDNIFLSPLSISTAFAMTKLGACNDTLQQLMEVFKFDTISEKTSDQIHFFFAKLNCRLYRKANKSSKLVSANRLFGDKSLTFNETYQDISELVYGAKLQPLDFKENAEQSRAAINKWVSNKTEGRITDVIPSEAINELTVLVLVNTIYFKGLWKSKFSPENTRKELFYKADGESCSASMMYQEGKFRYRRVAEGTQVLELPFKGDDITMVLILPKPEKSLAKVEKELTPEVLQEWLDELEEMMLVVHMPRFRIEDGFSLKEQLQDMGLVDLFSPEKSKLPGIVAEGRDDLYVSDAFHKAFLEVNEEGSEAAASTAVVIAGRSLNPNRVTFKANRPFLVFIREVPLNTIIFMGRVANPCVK
Assay: Biacore

| Binder | Kd |
| --- | --- |
| B1 | 17.2 nM |
| B2 | 11.9 nM |
| B3 | 18.9 nM |
